Experimental findings from the supplement of paper PMC11246515 are described below.

This series is described as follows: total protein half-life in vivo (active degradation + dilution); higher = more stable protein.
Setting [1] is: E. coli NCM3722 delta-clpP delta-lon delta-hslV, growth: N-lim chemostat, doubling time 6 h.
The mark [2] stands for this setting: E. coli NCM3722 delta-clpP, growth: N-lim chemostat, doubling time 6 h.
[3] abbreviates: E. coli NCM3722 delta-hslV, growth: N-lim chemostat, doubling time 6 h.
The mark [4] stands for this setting: E. coli NCM3722 delta-lon, growth: N-lim chemostat, doubling time 6 h.
[5] abbreviates: E. coli NCM3722 delta-smpB, growth: N-lim chemostat, doubling time 6 h.
Where [6] appears, read: wild type E. coli NCM3722, growth: C-lim chemostat, doubling time 3 h.
The mark [7] stands for this setting: wild type E. coli NCM3722, growth: C-lim chemostat, doubling time 6 h.
The mark [8] stands for this setting: wild type E. coli NCM3722, growth: C-lim chemostat, doubling time 12 h.
Where [9] appears, read: wild type E. coli NCM3722, growth: N-lim chemostat, doubling time 6 h.
[10] abbreviates: wild type E. coli NCM3722, growth: N-lim chemostat, doubling time 12 h.
Where [11] appears, read: wild type E. coli NCM3722, growth: P-lim chemostat, doubling time 6 h.
Where [12] appears, read: wild type E. coli NCM3722, growth: P-lim chemostat, doubling time 12 h.

± gives the standard deviation of the averaged measurements.

Take “MRVLKFGGTSVANAERFLRVADILESNARQGQVATVLSAPAKITNHLVAMIEKTISGQDALPNISDAERIFAELLTGLAAAQPGFPLAQLKTFVDQEFAQIKHVLHGISLLGQCPDSINAALICRGEKMSIAIMAGVLEARGHNVTVIDPVEKLLAVGHYLESTVDIAESTRRIAASRIPADHMVLMAGFTAGNEKGELVVLGRNGSDYSAAVLAACLRADCCEIWTDVDGVYTCDPRQVPDARLLKSMSYQEAMELSYFGAKVLHPRTITPIAQFQIPCLIKNTGNPQAPGTLIGASRDEDELPVKGISNLNNMAMFSVSGPGMKGMVGMAARVFAAMSRARISVVLITQSSSEYSISFCVPQSDCVRAERAMQEEFYLELKEGLLEPLAVTERLAIISVVGDGMRTLRGISAKFFAALARANINIVAIAQGSSERSISVVVNNDDATTGVRVTHQMLFNTDQVIEVFVIGVGGVGGALLEQLKRQQSWLKNKHIDLRVCGVANSKALLTNVHGLNLENWQEELAQAKEPFNLGRLIRLVKEYHLLNPVIVDCTSSQAVADQYADFLREGFHVVTPNKKANTSSMDYYHQLRYAAEKSRRKFLYDTNVGAGLPVIENLQNLLNAGDELMKFSGILSGSLSYIFGKLDEGMSFSEATTLAREMGYTEPDPRDDLSGMDVARKLLILARETGRELELADIEIEPVLPAEFNAEGDVAAFMANLSQLDDLFAARVAKARDEGKVLRYVGNIDEDGVCRVKIAEVDGNDPLFKVKNGENALAFYSHYYQPLPLVLRGYGAGNDVTAAGVFADLLRTLSWKLGV”: the “total protein half-life in vivo” value reads like this: under setting [1], 5.65 ± 0.16 h; under setting [2], 4.31 ± 0.13 h; under setting [3], 4.513 ± 0.01 h; under setting [4], 4.89 ± 0.11 h; under setting [5], 4.13 ± 0.11 h; under setting [6], 3.08 ± 0.21 h. Also, the “total protein half-life in vivo” value stood at 5.9 ± 0.22 h under setting [7]; 13.5 ± 0.33 h under setting [8]; 4.29 ± 0.33 h under setting [9]; 7.56 ± 0.76 h under setting [10]; 6.53 ± 0.39 h under setting [11]; 12.2 ± 0.26 h under setting [12].
Regarding “MAGHSKWANTRHRKAAQDAKRGKIFTKIIRELVTAAKLGGGDPDANPRLRAAVDKALSNNMTRDTLNRAIARGVGGDDDANMETIIYEGYGPGGTAIMIECLSDNRNRTVAEVRHAFSKCGGNLGTDGSVAYLFSKKGVISFEKGDEDTIMEAALEAGAEDVVTYDDGAIDVYTAWEEMGKVRDALEAAGLKADSAEVSMIPSTKADMDAETAPKLMRLIDMLEDCDDVQEVYHNGEISDEVAATL [P0A8A0]”, the “total protein half-life in vivo” value was 5.28 ± 0.71 h under setting [1]; 4.61 ± 0.6 h under setting [2]; 3.03 ± 0.19 h under setting [3]; 3.29 ± 0.17 h under setting [4]; 2.94 ± 0.12 h under setting [5]; 2.524 ± 0.013 h under setting [6]. The “total protein half-life in vivo” value was 4.01 ± 0.095 h under setting [7]; 7.21 ± 0.53 h under setting [8]; 3.15 ± 0.058 h under setting [9]; 4.09 ± 0.034 h under setting [10]; 3.69 ± 0.66 h under setting [11]; 6.79 ± 0.84 h under setting [12].
Regarding “MKTINTVVAAMALSTLSFGVFAAEPVTASQAQNMNKIGVVSADGASTLDALEAKLAEKAAAAGASGYSITSATNNNKLSGTAVIYK [P0AAX3]”, under setting [5], the “total protein half-life in vivo” value is 0.346 h.
As to “MKRQKRDRLERAHQRGYQAGIAGRSKEMCPYQTLNQRSQWLGGWREAMADRVVMA [P0AFW2]”, the “total protein half-life in vivo” value reads like this: under setting [1], 0.535 h; under setting [2], 0.588 h; under setting [3], 0.382 h; under setting [4], 0.441 h; under setting [5], 0.472 ± 0.2 h; under setting [7], 0.0712 h. Also, the “total protein half-life in vivo” value was found to be 0.0514 ± 0.073 h under setting [8], 0.352 h under setting [9], 0.686 ± 0.26 h under setting [10] and 1.16 h under setting [12].
For the sequence “MALLNVDKLSVHFGDESAPFRAVDRISYSVKQGEVVGIVGESGSGKSVSSLAIMGLIDYPGRVMAEKLEFNGQDLQRISEKERRNLVGAEVAMIFQDPMTSLNPCYTVGFQIMEAIKVHQGGNKSTRRQRAIDLLNQVGIPDPASRLDVYPHQLSGGMSQRVMIAMAIACRPKLLIADEPTTALDVTIQAQIIELLLELQQKENMALVLITHDLALVAEAAHKIIVMYAGQVVETGDAHAIFHAPRHPYTQALLRALPEFAQDKERLASLPGVVPGKYDRPNGCLLNPRCPYATDRCRAEEPALNMLADGRQSKCHYPLDDAGRPTL [P0AAG0]”, the “total protein half-life in vivo” value is 6.72 ± 1.2 h under setting [1]; 6.26 ± 0.28 h under setting [2]; 6.21 ± 0.75 h under setting [3]; 7.31 ± 0.78 h under setting [4]; 6.33 ± 0.16 h under setting [5]; 3.12 ± 0.29 h under setting [6]. In addition, the “total protein half-life in vivo” value reads like this: under setting [7], 6.95 ± 0.84 h; under setting [8], 12 ± 0.99 h; under setting [9], 5.94 ± 0.23 h; under setting [10], 12.6 ± 0.25 h; under setting [11], 6.27 ± 0.38 h; under setting [12], 13.3 ± 1.2 h.
As for “MDFNLNDEQELFVAGIRELMASENWEAYFAECDRDSVYPERFVKALADMGIDSLLIPEEHGGLDAGFVTLAAVWMELGRLGAPTYVLYQLPGGFNTFLREGTQEQIDKIMAFRGTGKQMWNSAITEPGAGSDVGSLKTTYTRRNGKIYLNGSKCFITSSAYTPYIVVMARDGASPDKPVYTEWFVDMSKPGIKVTKLEKLGLRMDSCCEITFDDVELDEKDMFGREGNGFNRVKEEFDHERFLVALTNYGTAMCAFEDAARYANQRVQFGEAIGRFQLIQEKFAHMAIKLNSMKNMLYEAAWKADNGTITSGDAAMCKYFCANAAFEVVDSAMQVLGGVGIAGNHRISRFWRDLRVDRVSGGSDEMQILTLGRAVLKQYR”, the “total protein half-life in vivo” value under setting [1] was over 8 h; the “total protein half-life in vivo” value under setting [4] was found to be 3.62 ± 0.096 h; the “total protein half-life in vivo” value under setting [5] was 2.77 ± 0.42 h; the “total protein half-life in vivo” value under setting [6] stood at 2.46 h; the “total protein half-life in vivo” value under setting [7] worked out at 3.58 h; the “total protein half-life in vivo” value under setting [8] came out at 7.41 ± 1.4 h. In addition, the “total protein half-life in vivo” value under setting [11] was determined as 5.45 ± 0.16 h and the “total protein half-life in vivo” value under setting [12] is 11.5 ± 1.7 h.
On to “MLTKDLSITFCGVKFPNPFCLSSSPVGNCYEMCAKAYDTGWGGVVFKTIGFFIANEVSPRFDHLVKEDTGFIGFKNMEQIAEHPLEENLAALRRLKEDYPDKVLIASIMGENEQQWEELARLVQEAGADMIECNFSCPQMTSHAMGSDVGQSPELVEKYCRAVKRGSTLPMLAKMTPNIGDMCEVALAAKRGGADGIAAINTVKSITNIDLNQKIGMPIVNGKSSISGYSGKAVKPIALRFIQQMRTHPELRDFPISGIGGIETWEDAAEFLLLGAATLQVTTGIMQYGYRIVEDMASGLSHYLADQGFDSLQEMVGLANNNIVPAEDLDRSYIVYPRINLDKCVGCGRCYISCYDGGHQAMEWSEKTRTPHCNTEKCVGCLLCGHVCPVGCIELGEVKFKKGEKEHPVTL”, for which the “total protein half-life in vivo” value under setting [1] amounted to 4.6 h, the “total protein half-life in vivo” value under setting [6] was found to be 0.869 ± 0.52 h, the “total protein half-life in vivo” value under setting [7] is 2.35 h and the “total protein half-life in vivo” value under setting [8] was determined as 1.67 ± 0.23 h.
